Biological target: T1, IL-23R (human, UniProt Q5VWK5 24-629)
T1 sequence (looked up): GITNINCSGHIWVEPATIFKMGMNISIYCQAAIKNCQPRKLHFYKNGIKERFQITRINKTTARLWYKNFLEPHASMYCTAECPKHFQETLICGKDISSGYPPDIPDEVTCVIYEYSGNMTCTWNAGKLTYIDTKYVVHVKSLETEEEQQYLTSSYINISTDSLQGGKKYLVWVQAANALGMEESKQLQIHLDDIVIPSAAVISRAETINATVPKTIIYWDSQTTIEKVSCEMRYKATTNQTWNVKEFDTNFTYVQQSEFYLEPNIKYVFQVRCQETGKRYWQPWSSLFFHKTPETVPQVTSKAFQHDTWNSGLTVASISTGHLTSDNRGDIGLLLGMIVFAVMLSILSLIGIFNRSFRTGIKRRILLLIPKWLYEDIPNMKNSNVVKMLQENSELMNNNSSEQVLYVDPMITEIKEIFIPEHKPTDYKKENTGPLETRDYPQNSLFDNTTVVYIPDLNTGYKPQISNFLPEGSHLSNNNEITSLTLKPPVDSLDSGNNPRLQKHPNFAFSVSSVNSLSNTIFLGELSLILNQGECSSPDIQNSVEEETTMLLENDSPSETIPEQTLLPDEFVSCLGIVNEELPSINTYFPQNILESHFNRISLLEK
Experiment: cell-based or functional assay

pStat3 HTRF (nM) IC50: < 1 nM
B1: SEQ ID NO: 29 (peptide)
peptide: RXQTXQCXXXKNN
modifications: Ac-[(D)Arg]-[Abu]-QT-[W(7-Me)]-QC-[Phe[4-(2-aminoethoxy)]-[2-Nal]-[THP]-[Lys(Ac)]-NN-NH2; Abu-Cys thioether

From patent US20260116921A1, “PEPTIDE INHIBITORS OF INTERLEUKIN-23 RECEPTOR AND THEIR USE TO TREAT INFLAMMATORY DISEASES” (priority 2018, published 2026)
